From patent US20230340151A1 (Pfizer, published 2023)

Columns and labels:
Assay in all cases: flow cytometry on cells displaying the construct
[1] = biological target: T1, CID1879 (human-chicken GUCY2c chimera) (human/chicken)
T1 chain: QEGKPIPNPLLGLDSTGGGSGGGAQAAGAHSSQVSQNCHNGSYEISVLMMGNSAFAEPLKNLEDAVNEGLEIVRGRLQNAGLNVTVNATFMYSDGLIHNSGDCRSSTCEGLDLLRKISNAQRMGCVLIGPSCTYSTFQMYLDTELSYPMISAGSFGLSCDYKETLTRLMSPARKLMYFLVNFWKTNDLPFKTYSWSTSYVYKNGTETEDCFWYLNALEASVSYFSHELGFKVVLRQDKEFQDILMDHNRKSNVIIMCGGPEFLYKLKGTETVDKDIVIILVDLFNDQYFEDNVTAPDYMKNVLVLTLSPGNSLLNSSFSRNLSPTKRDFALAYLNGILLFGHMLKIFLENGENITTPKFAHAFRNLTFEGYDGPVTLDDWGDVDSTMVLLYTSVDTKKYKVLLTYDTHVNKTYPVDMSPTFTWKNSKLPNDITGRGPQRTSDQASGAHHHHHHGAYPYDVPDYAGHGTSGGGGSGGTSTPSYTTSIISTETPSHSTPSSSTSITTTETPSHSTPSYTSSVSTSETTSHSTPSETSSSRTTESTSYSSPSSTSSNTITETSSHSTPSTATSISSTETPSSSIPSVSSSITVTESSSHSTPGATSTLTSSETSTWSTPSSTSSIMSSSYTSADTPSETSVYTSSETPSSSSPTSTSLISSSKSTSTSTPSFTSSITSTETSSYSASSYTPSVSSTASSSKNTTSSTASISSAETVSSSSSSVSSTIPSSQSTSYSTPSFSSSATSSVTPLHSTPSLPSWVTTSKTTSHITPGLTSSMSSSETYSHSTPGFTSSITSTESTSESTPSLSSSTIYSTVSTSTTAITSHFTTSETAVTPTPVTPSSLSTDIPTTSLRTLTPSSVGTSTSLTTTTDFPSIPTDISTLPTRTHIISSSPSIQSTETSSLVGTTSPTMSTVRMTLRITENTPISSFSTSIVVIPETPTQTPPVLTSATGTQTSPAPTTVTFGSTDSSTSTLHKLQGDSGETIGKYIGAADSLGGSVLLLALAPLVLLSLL
Text: (§1) Cells were then washed three times with PBS+0.5% BSA buffer. […] Cells were washed three times with PBS+0.5% BSA buffer and then analyzed on a flow cytometer.
(§2) MFI (median fluorescence intensity) of anti-GUCY2c antibody binding to the cells was normalized to expression on cell surface measured by MFI of anti-tag antibodies. All the cells expressed V5 and HA on the cell surface for expression normalization.

[2] = biological target: CID1949 (human GUCY2c point mutant) (human)
Text: as §1, §2

[3] = biological target: T2, CID1877 (human-chicken GUCY2c chimera) (human/chicken)
T2 chain: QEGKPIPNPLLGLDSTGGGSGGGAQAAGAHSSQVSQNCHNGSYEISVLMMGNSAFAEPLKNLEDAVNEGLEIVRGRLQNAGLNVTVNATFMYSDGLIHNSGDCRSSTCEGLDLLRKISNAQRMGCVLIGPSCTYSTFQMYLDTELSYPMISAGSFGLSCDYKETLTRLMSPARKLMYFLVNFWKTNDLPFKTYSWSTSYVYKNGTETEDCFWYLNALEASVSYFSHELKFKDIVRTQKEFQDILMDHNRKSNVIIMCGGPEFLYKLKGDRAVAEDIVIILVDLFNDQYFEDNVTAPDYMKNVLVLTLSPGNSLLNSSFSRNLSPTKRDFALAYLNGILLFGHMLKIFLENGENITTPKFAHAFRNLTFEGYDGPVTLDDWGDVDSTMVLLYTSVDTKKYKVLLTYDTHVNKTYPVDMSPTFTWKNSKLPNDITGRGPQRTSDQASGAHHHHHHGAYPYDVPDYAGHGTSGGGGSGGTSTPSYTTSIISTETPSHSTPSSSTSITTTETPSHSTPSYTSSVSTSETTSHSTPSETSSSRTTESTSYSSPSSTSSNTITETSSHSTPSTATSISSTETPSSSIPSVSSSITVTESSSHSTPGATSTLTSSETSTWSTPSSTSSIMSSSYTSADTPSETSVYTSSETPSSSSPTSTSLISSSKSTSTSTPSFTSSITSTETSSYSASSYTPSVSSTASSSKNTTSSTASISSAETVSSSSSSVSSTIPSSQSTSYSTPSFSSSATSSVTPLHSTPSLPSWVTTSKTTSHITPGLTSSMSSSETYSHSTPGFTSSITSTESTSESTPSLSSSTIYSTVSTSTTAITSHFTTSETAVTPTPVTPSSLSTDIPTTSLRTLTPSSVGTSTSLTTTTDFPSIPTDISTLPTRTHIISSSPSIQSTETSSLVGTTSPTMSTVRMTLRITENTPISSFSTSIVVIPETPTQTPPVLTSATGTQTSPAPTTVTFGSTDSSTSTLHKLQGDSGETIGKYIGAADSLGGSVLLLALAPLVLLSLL
Text: as §1, §2

[4] = biological target: CID1944 (human GUCY2c point mutant) (human)
Text: as §1, §2

[5] = biological target: CID1946 (human GUCY2c point mutant) (human)
Text: as §1, §2

Measured: binding result

B1: GUCY2C-1608 (bispecific antibody)
chain 1: DIQLTQSPSSLSASVGDRVTITCRASESVDYYGSSLLQWYQQKPGKAPKLLIYAASKLASGVPSRFSGSGSGTDFTLTISSLQPEDFATYYCQQTRKAYTFGQGTKLEIKGGGSGGGGEVQLVESGGGLVQPGGSLRLSCAASGFTFSDYYMTWVRQAPGKGLEWVAFIRNQARGYTSDHNPSVKGRFTISRDNAKNSLYLQMNSLRAEDTAVYYCARDRPSYYVLDYWGQGTTVTVSSGCPPCPAPEAAGAPSVFLFPPKPKDTLMISRTPEVTCVVVDVSHEDPEVKFNWYVDGVEVHNAKTKPREEQYNSTYRVVSVLTVLHQDWLNGKEYKCKVSNKALPAPIEKTISKAKGQPREPQVCTLPPSREEMTKNQVSLWCLVKGFYPSDIAVEWESNGQPENNYKTTPPVLDSDGSFFLYSKLTVDKSRWQQGNVFSCSVMHEALHNHYTQKSLSLSPG
chain 2: DIQMTQSPSSLSASVGDRVTITCTSSQSLFNVRSQKNYLAWYQQKPGKAPKLLIYWASTRESGVPSRFSGSGSGTDFTLTISSLQPEDFATYYCKQSYDLFTFGGGTKVEIKGGGGSGGGGEVQLVESGGGLVQPGGSLRLSCAASGFTFSSYWMHWVRQAPGKGLEWIGEIKPSNELTNVHEKFKDRFTISVDKAKNSAYLQMNSLRAEDTAVYYCTRTITTTEGYWFFDVWGQGTLVTVSSGCPPCPAPEAAGAPSVFLFPPKPKDTLMISRTPEVTCVVVDVSHEDPEVKFNWYVDGVEVHNAKTKPREEQYNSTYRVVSVLTVLHQDWLNGKEYKCKVSNKALPAPIEKTISKAKGQPREPQVYTLPPCREEMTKNQVSLSCAVKGFYPSDIAVEWESNGQPENNYKTTPPVLDSDGSFFLVSKLTVDKSRWQQGNVFSCSVMHEALHNHYTQKSLSLSPG
notes: also called GUCY2c CD3 bispecific
binds: all assays above
